Measurements as given in patent US20240392002A1 (EXELIXIS, published 2024).
Where a chain is given by its changes, count along the chain named. Names and notes keep the numbering of the source.

Key:
ROR1 on tumor cell lines = ROR1 on tumor cell lines (human, UniProt Q01973 30-937); experiment: cell-based or functional assay
[1] = target: T1, CD3 on a cynomolgus T cell line (cynomolgus); experiment: flow cytometry on a cynomolgus T cell line, fluorescently labeled secondary antibody, MFI against antibody concentration
T1 construct: whole, on cells; also called cynomolgus CD3
T1 sequence (Q95LI5 22-198, chain 1 of 3): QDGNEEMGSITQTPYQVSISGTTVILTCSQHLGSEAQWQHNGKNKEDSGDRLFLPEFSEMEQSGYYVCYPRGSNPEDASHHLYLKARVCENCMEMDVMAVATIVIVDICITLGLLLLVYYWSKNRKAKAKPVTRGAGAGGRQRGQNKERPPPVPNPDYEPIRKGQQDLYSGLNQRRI
T1 sequence (Q95LI8 22-171, chain 2 of 3, further chain): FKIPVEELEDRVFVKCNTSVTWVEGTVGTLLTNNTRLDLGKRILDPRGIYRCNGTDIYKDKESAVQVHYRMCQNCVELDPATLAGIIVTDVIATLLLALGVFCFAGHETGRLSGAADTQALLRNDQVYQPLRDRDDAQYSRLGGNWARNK
T1 sequence (Q95LI7 23-181, chain 3 of 3, further chain): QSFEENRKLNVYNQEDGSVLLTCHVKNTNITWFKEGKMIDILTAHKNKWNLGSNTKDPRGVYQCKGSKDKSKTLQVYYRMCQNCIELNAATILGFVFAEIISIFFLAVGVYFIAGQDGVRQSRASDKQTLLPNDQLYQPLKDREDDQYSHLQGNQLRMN
Excerpt: (§1) In this Example, the binding to human and cynomolgus CD3 was further characterized by assessing cell binding to Jurkat T cells, a Jurkat CD3 knock-out cell line, or a cynomolgus T cell line.

CD3 on Jurkat T cells = target: T2, CD3 on Jurkat T cells (human, UniProt P07766 23-207; P04234 22-171); experiment: flow cytometry on Jurkat T cells, fluorescently labeled secondary antibody, MFI against antibody concentration
T2 construct: also called human CD3; copies: 1 + 1
T2 sequence (P07766 23-207 limits assumed, chain 1 of 2): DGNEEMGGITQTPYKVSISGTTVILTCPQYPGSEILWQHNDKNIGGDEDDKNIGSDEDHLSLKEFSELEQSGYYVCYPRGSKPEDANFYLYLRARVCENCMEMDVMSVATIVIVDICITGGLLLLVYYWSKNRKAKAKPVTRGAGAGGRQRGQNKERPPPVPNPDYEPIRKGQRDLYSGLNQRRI
T2 sequence (P04234 22-171 limits assumed, chain 2 of 2): as the sequence (Q95LI8 22-171, chain 2 of 3, further chain) above, with V5I, K15N, V20I, T32S, N33D, N34I, A64T, N74S, L83V, R141H counted along it
Excerpt: as §1

[2] = target: T3, extracellular domain of human ROR1 (human, UniProt Q01973 30-406); experiment: BLI, bivalent format, biotinylated antigen on streptavidin biosensor, B-body 50 nM to 0.75 nM
T3 construct: bought protein; biotinylated in the bivalent assay format; also called Acro Cat. No. RO1-H522y
T3 sequence (Q01973 30-406 limits assumed): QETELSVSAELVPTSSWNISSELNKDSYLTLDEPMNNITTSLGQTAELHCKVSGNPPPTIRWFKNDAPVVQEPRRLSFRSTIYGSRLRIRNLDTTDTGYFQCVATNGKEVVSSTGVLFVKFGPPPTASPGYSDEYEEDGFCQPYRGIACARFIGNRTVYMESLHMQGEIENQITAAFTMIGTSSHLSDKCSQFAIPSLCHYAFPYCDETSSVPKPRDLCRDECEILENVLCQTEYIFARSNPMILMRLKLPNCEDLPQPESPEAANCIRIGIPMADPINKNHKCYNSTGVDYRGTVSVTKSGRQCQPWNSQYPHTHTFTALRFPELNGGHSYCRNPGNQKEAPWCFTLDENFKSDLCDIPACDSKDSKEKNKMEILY
Protocol: (§2) Bivalent binding analysis was performed using the Octet^QK 384 (ForteBio) using streptavidin biosensors. Biotinylated antigen was first bound to the streptavidin biosensor at a concentration to yield approximately 1 nm response (typically 10 to 50 nM biotinylated protein). The biosensors were then equilibrated in 10× Kinetic Buffer (ForteBio) to establish a baseline. The 1×2 B-body™ was contacted with the antigen-coated sensors at concentrations ranging from 50 nm to 0.75 nM. The association response and dissociation were monitored and recorded. The resulting Kₒₙ and Koff was fit using the Octet analysis software.

[3] = target: T3, extracellular domain of human ROR1; experiment: BLI (Octet QK384), bivalent format: biotinylated antigen on streptavidin biosensor, 1x2 B-body as analyte
Protocol: as §2

[4] = target: T3, extracellular domain of human ROR1; experiment: BLI (Octet QK384), monovalent format: B-body captured on Fc biosensor, untagged antigen as analyte
Protocol: (§3) More specifically, monovalent binding affinity analysis was performed using the Octet^QK 384 (ForteBio) using Fc biosensors. Unlabeled B-body™ is first bound to the Fc biosensor at a concentration to yield approximately 1 nm response (typically 10 to 50 nM protein). The biosensors are then equilibrated in 10× Kinetic Buffer (ForteBio) to establish a baseline. The untagged monomer of each antigen is contacted with the antibody-coated sensors at concentrations ranging from 50 nm to 0.75 nM. The association response and dissociation were monitored and recorded. The resulting Kₒₙ and Koff was fit using the Octet analysis software.
(§4) Monovalent binding analysis was performed as described above and the antibody was captured with an Fc sensor and contacted with the indicated antigen for the association phase followed by a dissociation phase in buffer only.

[5] = target: T3, extracellular domain of human ROR1; experiment: BLI, monovalent format, B-body on Fc biosensor, soluble antigen
Protocol: as §3, §4

[6] = target: T4, cynomolgus CD3 delta and epsilon heterodimer (cynomolgus, UniProt Q95LI5 22-117; Q95LI8 22-105); experiment: BLI (Octet QK384), monovalent format: B-body captured on Fc biosensor, untagged antigen as analyte
T4 construct: untagged monomer of the antigen in solution
T4 sequence (Q95LI5 22-117, stated change not applied, chain 1 of 2): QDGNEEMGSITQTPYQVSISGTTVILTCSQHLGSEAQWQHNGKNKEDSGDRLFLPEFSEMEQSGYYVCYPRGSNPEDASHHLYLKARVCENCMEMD
T4 sequence (Q95LI8 22-105, stated change not applied, chain 2 of 2): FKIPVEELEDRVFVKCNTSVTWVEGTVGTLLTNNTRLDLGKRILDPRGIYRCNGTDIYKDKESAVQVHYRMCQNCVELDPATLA
Protocol: as §3

[7] = target: T4, cynomolgus CD3 delta and epsilon …; experiment: BLI, B-body on Fc biosensor, antigen monomer 50 nM to 0.75 nM
Protocol: as §3

[8] = target: T3, extracellular domain of human ROR1; experiment: BLI (Octet QK384), monovalent format: antibody captured on Fc biosensor, untagged antigen as analyte
[9] = target: T3, extracellular domain of human ROR1; experiment: BLI (Octet), IgG1, two-fold serial dilution 200-12.5 nM
Excerpt: To measure binding affinity in ROR binder discovery campaigns, the VL and VH domains identified in the phage screen described above were formatted into a bivalent monospecific native human full-length IgG1 architecture and immobilized to a biosensor on an Octet (Pall ForteBio) biolayer interferometer. Soluble ROR antigens, including the extracellular domains of ROR1 (Acro Cat. No. RO1-H522γ) and ROR2 (Acro Cat. No. R02-H52E5), as well as the individual ROR1 Frizzled (Acro Cat. No. RO1-H5222), Ig-like (Acro Cat. No. RO1-H5221), and Kringle (Acro Cat. No. RO1-H5223) domains, were then added to the system and binding measured.
The VH and VL sequences above were formatted into a bivalent monospecific native human full-length IgG1 architecture.

[10] = target: T3, extracellular domain of human ROR1; experiment: BLI, monovalent format, IgG on Fc biosensor
[11] = target: T3, extracellular domain of human ROR1; experiment: BLI (Octet QK384), monovalent format: antibody captured on Fc biosensor, untagged antigen as analyte; remark: listed apart in the source
Protocol: as §3
(§5) Next, the binding of the antibody to ROR1 and ROR2 was assessed using the monovalent and bivalent BLI binding assessments as described in Example 24.

[12] = target: T5, extracellular domain of human ROR2 (human, UniProt Q01974 34-403); experiment: as above
T5 construct: bought protein; biotinylated in the bivalent assay format; also called Acro Cat. No. RO2-H52E5
T5 sequence (Q01974 34-403 limits assumed): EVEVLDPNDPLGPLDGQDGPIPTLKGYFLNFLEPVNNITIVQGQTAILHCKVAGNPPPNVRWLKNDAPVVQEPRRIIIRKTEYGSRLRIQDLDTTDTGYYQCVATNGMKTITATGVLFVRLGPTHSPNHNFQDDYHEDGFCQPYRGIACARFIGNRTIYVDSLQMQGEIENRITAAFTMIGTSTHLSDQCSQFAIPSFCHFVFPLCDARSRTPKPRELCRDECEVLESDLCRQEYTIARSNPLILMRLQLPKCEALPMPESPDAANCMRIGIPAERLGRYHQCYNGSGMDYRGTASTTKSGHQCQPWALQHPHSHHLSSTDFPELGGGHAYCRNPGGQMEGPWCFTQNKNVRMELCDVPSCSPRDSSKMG
Protocol: as §3, §5

[13] = target: T3, extracellular domain of human ROR1; experiment: BLI, monovalent format
Protocol: as §3, §5

[14] = target: T5, extracellular domain of human ROR2; experiment: BLI, monovalent format
Protocol: as §3, §5

CTLA4 = target: T6, CTLA4 (UniProt P16410 36-161, limits assumed); experiment: Octet; antigen immobilized, B-Body as analyte
T6 sequence (looked up): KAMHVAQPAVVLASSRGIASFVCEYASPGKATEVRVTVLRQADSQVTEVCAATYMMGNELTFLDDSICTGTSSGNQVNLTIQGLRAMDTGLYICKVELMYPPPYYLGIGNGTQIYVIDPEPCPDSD
Excerpt: In each instance, the antigen is immobilized and the B-Body is the analyte.

Sequence of ROR1 on tumor cell lines (Q01973 30-937 limits assumed): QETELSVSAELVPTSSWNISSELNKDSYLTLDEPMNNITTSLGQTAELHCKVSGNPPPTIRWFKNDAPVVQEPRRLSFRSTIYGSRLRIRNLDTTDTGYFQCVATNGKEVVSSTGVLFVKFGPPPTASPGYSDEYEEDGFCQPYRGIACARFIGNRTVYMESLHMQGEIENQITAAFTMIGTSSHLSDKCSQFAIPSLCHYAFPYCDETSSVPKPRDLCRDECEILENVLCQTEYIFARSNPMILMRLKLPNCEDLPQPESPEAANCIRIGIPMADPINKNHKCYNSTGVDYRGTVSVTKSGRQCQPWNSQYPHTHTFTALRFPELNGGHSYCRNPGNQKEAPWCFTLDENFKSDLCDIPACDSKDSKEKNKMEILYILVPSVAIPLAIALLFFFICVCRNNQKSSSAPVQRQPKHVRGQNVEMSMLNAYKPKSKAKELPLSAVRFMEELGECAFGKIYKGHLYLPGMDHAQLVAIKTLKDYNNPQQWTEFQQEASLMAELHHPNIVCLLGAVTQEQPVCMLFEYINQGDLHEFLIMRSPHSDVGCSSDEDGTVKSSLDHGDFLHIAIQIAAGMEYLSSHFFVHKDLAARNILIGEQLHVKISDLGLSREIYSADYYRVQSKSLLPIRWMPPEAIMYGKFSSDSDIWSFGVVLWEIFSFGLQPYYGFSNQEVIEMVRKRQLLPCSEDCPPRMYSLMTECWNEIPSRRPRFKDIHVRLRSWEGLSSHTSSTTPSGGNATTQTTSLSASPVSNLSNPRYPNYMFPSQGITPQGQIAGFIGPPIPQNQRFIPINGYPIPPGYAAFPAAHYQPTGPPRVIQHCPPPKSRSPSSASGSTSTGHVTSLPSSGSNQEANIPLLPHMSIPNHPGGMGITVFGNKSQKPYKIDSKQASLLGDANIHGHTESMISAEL

B1: I2A-27 BC1 1×2 B-body (I2A-27 x SP34-89), Example 20 (bispecific antibody)
chain 1: not shown
chain 2: EVQLVESGGGLVQPGGSLRLSCAASGFTFKGYYIHWVRQAPGKGLEWVAAIYPYGGSTDYADSVKGRFTISADTSKNTAYLQMNSLRAEDTAVYYCARVYIYGVFDYWGQGTLVTVSSASPREPQVYTDPPSRDELTKNQVSLTCLVKGFYPSDIAVEWESNGQPENNYKTTPPVLDSDGSFFLYSKLTVDKSRWQQGNVFSCSVMHEALHNHYTQKSLSLSGEC
chain 3: DIQMTQSPSSLSASVGDRVTITCRASQSVSSAVAWYQQKPGKAPKLLIYSASSLYSGVPSRFSGSRSGTDFTLTISSLQPEDFATYYCQQYYSSPRTFGQGTKVEIKRTPREPQVYTLPPSRDELTKNQVSLKCLVKGFYPSDIAVEWESNGQPENNYKTTPPVLDSDGSFFLYSKLTVDKSRWQQGNVFSCSVMHEALHNHYTQKSLSLSKSCTASSGGSSSGQAVVTQEPSLTVSPGGTVTLTCRSSTGAVTTSNYANWVQQKPGQAPRGLIGGTNKRAPWTPARFSGSLLGGKAALTITGAQAEDEADYYCALWYSNLWVFGGGTKLTVLGRTVAAPSVFIFPPSDEQLKSGTASVVCLLNNFYPREAKVQWKVDNALQSGNSQESVTEQDSKDSTYSLSSTLTLSKADYEKHKVYACEVTHQGLSSPVTKSFNRGECDKTHTCPPCPAPEAAGGPSVFLFPPKPKDTLMISRTPEVTCVVVDVSHEDPEVKFNWYVDGVEVHNAKTKPREEQYNSTYRVVSVLTVLHQDWLNGKEYKCKVSNKALKAPIEKTISKAKGQPREPQVCTLPPSREEMTKNQVSLSCAVKGFYPSDIAVEWESNGQPENNYKTTPPVLDSDGSFFLVSKLTVDKSRWQQGNVFSCSVMHEALHNHYTQKSLSLSPGK
chain 4: EVQLVESGGGLVQPGGSLRLSCAASGFTFNTYAMNWVRQAPGKGLEWVARIRSKYNNYATYYADSVKGRFSISRDDSKNTAYLQMNSLRAEDTAVYYCVRHGNFGNSYVSWFAYWGQGTLVTVSSASTKGPSVFPLAPSSKSTSGGTAALGCLVKDYFPEPVTVSWNSGALTSGVHTFPAVLQSSGLYSLSSVVTVPSSSLGTQTYICNVNHKPSNTKVDKKVEPPKSC
ROR1 on tumor cell lines
  EC50, CD8+ T cell mediated killing of MDA-MB-231 (LDH): 0.0082 nM

B2: SP34-89 humanized antibody (antibody, V domains shown)
VH: EVQLVESGGGLVQPGGSLRLSCAASGFTFNTYAMNWVRQAPGKGLEWVARIRSKYNNYATYYADSVKGRFSISRDDSKNTAYLQMNSLRAEDTAVYYCVRHGNFGNSYVSWFAYWGQGTLVTV
VL: QAVVTQEPSLTVSPGGTVTLTCRSSTGAVTTSNYANWVQQKPGQAPRGLIGGTNKRAPWTPARFSGSLLGGKAALTITGAQAEDEADYYCALWYSNLWVFGGGTKLTVL
[1]
  EC50 (read off the curve): ~0.7 nM
CD3 on Jurkat T cells
  EC50 (read off the curve): ~0.6 nM

B3: I2-A27 1×2 B-body™ bispecific antibody (ROR1xCD3) (bispecific antibody)
chain 1: DIQMTQSPSSLSASVGDRVTITCRASQSVSSAVAWYQQKPGKAPKLLIYSASSLYSGVPSRFSGSRSGTDFTLTISSLQPEDFATYYCQQYYSSPRTFGQGTKVEIKRTPREPQVYTLPPSRDELTKNQVSLKCLVKGFYPSDIAVEWESNGQPENNYKTTPPVLDSDGSFFLYSKLTVDKSRWQQGNVFSCSVMHEALHNHYTQKSLSLSKSCDKTHTCPPCPAPEAAGGPSVFLFPPKPKDTLMISRTPEVTCVVVDVSHEDPEVKFNWYVDGVEVHNAKTKPREEQYNSTYRVVSVLTVLHQDWLNGKEYKCKVSNKALKAPIEKTISKAKGQPREPQVCTLPPSREEMTKNQVSLSCAVKGFYPSDIAVEWESNGQPENNYKTTPPVLDSDGSFFLVSKLTVDKSRWQQGNVFSCSVMHEALHNHYTQKSLSLSPGK
chain 2: B1 chain 2
chain 3: not shown
chain 4: B1 chain 4
notes: two ROR sites, one SP34-89 CD3 site; chain 5 is the same as chain 2; also called I2A-27 BC1 1×2
[2]
  Kd: 0.71 nM
[3]
  koff: 3.5e-05 s⁻¹
  kon: 490000 M⁻¹ s⁻¹
[4]
  koff: 0.0026 s⁻¹
  kon: 680000 M⁻¹ s⁻¹
[5]
  Kd: 3.8 nM
[6]
  koff: 0.00032 s⁻¹
  kon: 110000 M⁻¹ s⁻¹
[7]
  Kd: 3 nM

B4: I2A-27 IgG1 (antibody, V domains shown)
VH: EVQLVESGGGLVQPGGSLRLSCAASGFTFKGYYIHWVRQAPGKGLEWVAAIYPYGGSTDYADSVKGRFTISADTSKNTAYLQMNSLRAEDTAVYYCARVYIYGVFDYWGQGTLVTVSS
VL: DIQMTQSPSSLSASVGDRVTITCRASQSVSSAVAWYQQKPGKAPKLLIYSASSLYSGVPSRFSGSRSGTDFTLTISSLQPEDFATYYCQQYYSSPRTFGQGTKVEIKR
notes: bivalent monospecific native human full-length IgG1; the Domain F / Domain A entries end with AS / RT of the junction to the constant domain; also called clone I2-A27; I2-A27 IgG antibody
[8]
  koff: 0.0026 s⁻¹
  kon: 940000 M⁻¹ s⁻¹
[9]
  Kd: 4.1 nM
  koff: 0.00185 s⁻¹
  kon: 511000 M⁻¹ s⁻¹
[10]
  Kd: 2.8 nM

B5: I2A-10 D54E Y55Q IgG (antibody, V domains shown)
VH: EVQLVESGGGLVQPGGSLRLSCAASGFTFSSYFIHWVRQAPGKGLEWVAGIYPSEGYTSYADSVKGRFTISADTSKNTAYLQMNSLRAEDTAVYYCARYYVSGMDYWGQGTLVTVSS
VL: B4 VL with Y55Q, S93Y, S94Y, R96G
notes: bivalent monospecific IgG; the Domain F / Domain A entries end with AS / RT of the junction to the constant domain; also called I2-A10 D54E Y55Q IgG antibody
[11]
  koff: 0.00039 s⁻¹
  kon: 550000 M⁻¹ s⁻¹
[12]
  koff: < 1e-07 s⁻¹
  kon: 140000 M⁻¹ s⁻¹
[13]
  Kd: 0.7 nM
[14]
  Kd: < 0.001 nM

B6: bivalent bispecific B-Body “BC1” (bispecific antibody)
chain 1: not shown
chain 2: EVQLVESGGGLVQPGGSLRLSCAASGFTFSDYDIHWVRQAPGKGLEWVGDITPYDGTTNYADSVKGRFTISADTSKNTAYLQMNSLRAEDTAVYYCARLVGEIATGFDYWGQGTLVTVSSASPREPQVYTDPPSRDELTKNQVSLTCLVKGFYPSDIAVEWESNGQPENNYKTTPPVLDSDGSFFLYSKLTVDKSRWQQGNVFSCSVMHEALHNHYTQKSLSLSGEC
chain 3: not shown
chain 4: QVQLVESGGGVVQPGRSLRLDCKASGITFSNSGMHWVRQAPGKGLEWVAVIWYDGSKRYYADSVKGRFTISRDNSKNTLFLQMNSLRAEDTAVYYCATNDDYWGQGTLVTVSSASTKGPSVFPLAPSSKSTSGGTAALGCLVKDYFPEPVTVSWNSGALTSGVHTFPAVLQSSGLYSLSSVVTVPSSSLGTQTYICNVNHKPSNTKVDKKVEPPKSC
notes: A:F site for Antigen A, H:L site nivolumab variable domains (PD1)
CTLA4
  binding result: no binding
